Laboratory results: PMC5131995

Target: recombinant human FcγRIIIa (V158) (human) (UniProt P08637)
Test: SPR

Sequence of UniProt P08637 (P08637 17-208): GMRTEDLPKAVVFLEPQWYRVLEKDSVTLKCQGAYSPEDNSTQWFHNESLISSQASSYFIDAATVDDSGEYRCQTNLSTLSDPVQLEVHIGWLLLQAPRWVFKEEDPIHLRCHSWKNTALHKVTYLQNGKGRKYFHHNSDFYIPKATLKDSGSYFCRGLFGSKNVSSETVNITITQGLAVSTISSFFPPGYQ

| Kd [nM] | Substance |
| --- | --- |
| 7.42 | anti-EGFR hIgG1 chimeric mAb with variant hIgG1-Fc from donor vector phIgG-SDIE (from UniProt P01875) |
| 29.4 | anti-EGFR hIgG1 chimeric mAb with variant hIgG1-Fc from donor vector phIgG-mu (from UniProt P01875) |
